Data on 17 sequences can be found in the supplement of paper PMC9170038.

This data set has as its system MS2 coat protein. Kind of data set: apparent KD of MS2 coat protein; higher = weaker reporter binding. Conditions: Eterna round: R107. The gist of the method: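 Each design's apparent KD comes from the median of binding-curve fits to its normalised clusters. Those clusters carried RNA switches transcribed on-chip from Illumina sequencing clusters. SNAP-549-labelled MS2 coat protein was titrated onto them in twofold steps (0.7 or 1.5 nM to 3 µM; per step 0.8–1.5 h down to 10–20 min). Conditions were 100 mM Tris-HCl pH 7.5, 80 mM KCl, 4 mM MgCl2, without or with constant ligand.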

Where [1] appears, read: input ligand: theophylline 20 uM.
The mark [2] stands for this setting: input ligand: theophylline 2 mM.
[3] abbreviates: input ligand: tryptophan 2.4 mM.

For the sequence “CCUAUGCAGUCGGCCGCCACUGAAAUCAAUAAGAUUACCUCAGAAACAUGAGGAUCACCCAUGUACAGGACCGGGACUGUAUAGG [Ex Tryptophan B 16]”, the “apparent KD of MS2 coat protein” value (input ligand: arginine 13.2 mM) was 20.6 nM; the “apparent KD of MS2 coat protein” value (input ligand: none) came out at 40 nM; the “apparent KD of MS2 coat protein” value under setting [1] came to 41.8 nM; the “apparent KD of MS2 coat protein” value under setting [2] came out at 37.2 nM; the “apparent KD of MS2 coat protein” value under setting [3] was 84.3 nM.
For “GGGCCCGGGCGCGAGCCCGGGCCCAUUGAUACCAGUGAUAUAUAGCGCCCUUGGCAGCGAAUCCUAACAUGAGGAUCACCCAUGU [5.I]” the same measures were 23.7 nM, 38.8 nM, 65.2 nM, 53.2 nM and 42.7 nM.
Turning to “CUACAUUUGUAGAAACCGGUCAACAAUAAUCGAGGACCGGUACGGCCGCCACUCGAUGUAAAAUAAACAUGAGGAUCACCCAUGU [Tryptophan A 12]”, the “apparent KD of MS2 coat protein” value is, setting by setting: (input ligand: arginine 13.2 mM) 13.5 nM; under setting [1], 20.6 nM; under setting [2], 20 nM.
With “GGUAUGUAUUCGGAAACGAAUGCAUACCAUCGAGGACCGGUACGGCCGCCACUCGUGGCUGAUCAACAUGAGGAUCACCCAUGUA [Ex Tryptophan A 1]”, the “apparent KD of MS2 coat protein” value by setting is: (input ligand: arginine 13.2 mM) 36.1 nM; (input ligand: none) 85.9 nM; under setting [1], 94.3 nM; under setting [2], 83.4 nM; under setting [3], 50.4 nM.
For “ACAUGAGGAUCACCCAUGUAUUCAUCAGAAGGAGCGUGGAAUAACACAGGUAGGUCGCUGAUUAUUUGUUAAAUAAAUUCGUGUA [JR_Nu_SSArginiA_Sub023]” the same measures were 19.3 nM, 16.1 nM, 19.1 nM, 16 nM and 16.4 nM.
For “GCUGUUGCGGUGAGGUAUCCGGCUGUGGAAGGAGCGCGGAAUGCCGCAGGUAGGUCGCCACAUGAGGAUCACCCAUGUCGAUAUA [Atzalama]” the same measures were 25.6 nM, 27.2 nM, 45.2 nM, 35 nM and 21.2 nM.
In the case of “GCCGGACUUUCGGCCGCCACUGAGAGAGUCGUGUGAACAUGAGGAUCACCCAUGUAAUAUAUAUACAGGACCGGGAGGGUUCGGC [4.S]”, the “apparent KD of MS2 coat protein” value reads like this: (input ligand: arginine 13.2 mM) 10.5 nM; (input ligand: none) 12.2 nM; under setting [1], 18.7 nM; under setting [2], 11.9 nM; under setting [3], 12 nM.
For “GGUGGCGUGACGGAUACCAGCCACCACCGCAAGGCCACAUGAGGAUCACCCAUGUUGGGUGGCCCUUGGCAGCUGUCGUGCGGCG [#1 Same State - Theophylline B Attempt #20 (HarryS)]” the same measures were 451 nM, 263 nM, 324 nM, 431 nM and 341 nM.
On to “GGGCAAGAGGGAAGGAGCGUCGGCUGGGUAACAUGAGGAUCACCCAUGUAGCACAUGGUGUGGCAGGUAGGUCGCCCUCUGCCCU [SS-ArgB9]”, for which the “apparent KD of MS2 coat protein” value was 71.1 nM (input ligand: arginine 13.2 mM); 102 nM (input ligand: none); 153 nM under setting [1]; 133 nM under setting [2]; 103 nM under setting [3].
For the sequence “CAAACAUGAGGAUCACCCAUGUAAUCAGAUACCAGUGACGAAAGUCACCCUUGGCAGCUGAGUACAUUAGUUCUAAGGUGUUUGA [EThA NP+V+V2 #6 +-Same Structure]”, the “apparent KD of MS2 coat protein” value (input ligand: arginine 13.2 mM) amounted to 32.7 nM, the “apparent KD of MS2 coat protein” value under setting [1] amounted to 61 nM and the “apparent KD of MS2 coat protein” value under setting [3] turned out to be 35.7 nM.
On to “AUACAUGAGGAUCACCCAUGUCAUACAGAAGGAGCGUCAUAUUAGACAGGUAGGUCGCUGUAAUUUUUAUUAUUCUUUAUGUAUU [JR_Nu_ExcArginiA_Sub026]”, for which the “apparent KD of MS2 coat protein” value (input ligand: arginine 13.2 mM) was determined as 21.9 nM; the “apparent KD of MS2 coat protein” value (input ligand: none) came out at 26 nM; the “apparent KD of MS2 coat protein” value under setting [1] was found to be 33.5 nM; the “apparent KD of MS2 coat protein” value under setting [2] stood at 26.9 nM; the “apparent KD of MS2 coat protein” value under setting [3] was found to be 26.1 nM.
“UAUAUAUAUAUUGAUACCAGCAGAGAAAACGUAUAUCCUAACAUGAGGAUCACCCAUGUAUGCCCUUGGCAGCGAUAUAUAUAUA [8.B]”: the “apparent KD of MS2 coat protein” value reads like this: (input ligand: arginine 13.2 mM) 21.2 nM; under setting [1], 31 nM; under setting [3], 24.9 nM.
For “GAUGAUAUUGCAGAUACCAGACACAUGAGGAUCACCCAUGUCUCUGUGAUGUAGGAUUGUGUCCCUUGGCAGCUGCGAUAUCAUC [Chile]” the same measures were 88 nM, 258 nM and 175 nM.
For “UAAACACAUGAGGAUCACCCAUGUCAUGAUACCAGUCAACAUGAGGACCCUUGGCAGCAUAAAAUGGGUAACAUGAGGAUCACCC [AstrosEXyTheA#2]”, the “apparent KD of MS2 coat protein” value is, setting by setting: (input ligand: arginine 13.2 mM) 46.2 nM; under setting [1], 78.4 nM; under setting [3], 51.5 nM.
Consider “GGGACAUGAGGAUCACCCAUGUACCGGUCCCGAGGACCGGUACGGCCGCCACUCGAUGACCUCAUAGUCUGCUGGAGCAGCAGAC [Usesedarin]”, for which the “apparent KD of MS2 coat protein” value (input ligand: none) was found to be 54.6 nM, the “apparent KD of MS2 coat protein” value under setting [1] is 108 nM, the “apparent KD of MS2 coat protein” value under setting [2] turned out to be 84.3 nM and the “apparent KD of MS2 coat protein” value under setting [3] was found to be 330 nM.
Turning to “UGAUCCUACAGAGAUACCAGUGCCACUGAGUGACCAGACACAUGAGGAUCACCCAUGUAACACCCUUGGCAGCUCAACUAGAGGG [Same State Theophylline B GF18]”, the “apparent KD of MS2 coat protein” value came to 16.8 nM (input ligand: arginine 13.2 mM), 22.3 nM under setting [1] and 19.7 nM under setting [3].
Consider “UCGCUCGCCGAAAGGCGAGCGAGUUGCGAUACCAGCCCGGAAACGGGCCCUUGGCAGCGCACAUGAGGAUCACCCAUGUCAUGUU [#1 Exclusion - Theophylline A Attempt #3 (HarryS)]”, for which the “apparent KD of MS2 coat protein” value reads like this: (input ligand: arginine 13.2 mM) 13.4 nM; (input ligand: none) 19.4 nM; under setting [1], 25.3 nM; under setting [2], 58.7 nM; under setting [3], 31.3 nM.
